This note sets out measurements from US11464867B2, “Multimeric elastin-like polypeptides” (University of Southern California, priority 2018, dated 2022).

Series [1] can be described thus: ATRA encapsulation in 4PA, two phase method, HPLC. The format is physicochemical. The conditions noted are these: theoretical maximum 4. The text has this:
FIG. 21: SDS PAGE was used to resolve the purified 4PA fusion protein. To formulate ATRA-loaded 4PA, a two phase encapsulation method was adopted. After removing undissolved drug, HPLC was used to quantify 4PA and ATRA concentrations. Encapsulation ratio, defined as CATRA/C4PA was 2.7, theoretical maximum being 4.

The nature of series [2]: Phase transition temperature by optical density (UV-Vis, 350 nm) versus temperature. The conditions noted are these: 25 μM; Table 5. The format is physicochemical. How it is done: The temperature with the maximum positive slope was defined as the phase transition temperature for each condition. (FIG. 2B) The concentration-temperature phase diagram was determined for both ELPs, and fit to the following equation: Tt=b−m Log10[CELP].
Both ELPs at different concentrations (5 μM to 100 μM) were subject to a precisely controlled temperature increase from 25 to 75° C. at a rate of 1° C./min. The Tt of ELPs is defined as the temperature at which the first derivative of the optical density with respect to the temperature reaches a maximum.

For the substance “4PA: 4 Pin1 domains linked by ELP A24, SEQ ID NO: 15”, in series [1], the “Encapsulation ratio, CATRA/C4PA” value turned out to be 2.7. Moreover, the “Transition temperature at 25 μM” value in series [2] was determined as 52.8 °C.
